Results on one substance are retold here after patent US20180120302A1.

Assay [1] addresses T4L-L99A-A130S (UniProt P00720). Put plainly: BSI, global analysis of kinetic traces.
The target in assay [2] is T4L-D70N (UniProt P00720). Kind of assay: BSI corrected steady-state data, 25° C., pH 8.0.
In assay [3] the target is T4L-L99A (UniProt P00720). Kind of assay: ITC, KD2 (low affinity mode), T = 37° C. and pH = 7.2. In general terms: Isothermal titration calorimetry measures the heat released or taken up as one component is titrated into another.
For assay [4], the target named is T4L-L99A (UniProt P00720). Put plainly: ITC, KD1 (high affinity mode), T = 37° C. and pH = 7.2.
Assay [5] concerns the target T4L-D70N (UniProt P00720). Put plainly: BSI, global analysis, KD2 (low affinity mode), 25° C., pH 8.0.
Assay [6] deals with T4L-L99A-A130S (UniProt P00720). The description is as above.
Assay [7] has as its target T4L-D70N (UniProt P00720). Kind of assay: BSI, global analysis, kf2 (low affinity mode), 25° C., pH 8.0.
Assay [8] concerns the target T4L-L99A-A130S (UniProt P00720). The description is as above.
In assay [9] the target is T4L-L99A (UniProt P00720). Kind of assay: Fluorescence, KD2 (low affinity mode), T = 37° C. and pH = 7.2.
In assay [10] the target is T4L-D70N (UniProt P00720). Kind of assay: BSI, global analysis, KD1 (high affinity mode), 25° C., pH 8.0.
The target in assay [11] is T4L-L99A-A130S (UniProt P00720). Described as above.
In assay [12] the target is T4L-D70N (UniProt P00720). Kind of assay: BSI, global analysis, kf1 (high affinity mode), 25° C., pH 8.0.
Assay [13] addresses T4L-L99A-A130S (UniProt P00720). The assay is described as above.
Assay [14] addresses T4L-D70N (UniProt P00720). Put plainly: BSI, global analysis, kr1 (high affinity mode), 25° C., pH 8.0.
In assay [15] the target is T4L-L99A-A130S (UniProt P00720). Described as above.
In assay [16] the target is T4L-L99A (UniProt P00720). Kind of assay: Fluorescence, KD1 (high affinity mode), T = 37° C. and pH = 7.2.
The target in assay [17] is T4L-L99A (UniProt P00720). Put plainly: BSI steady-state, KD2 (low affinity mode), T = 37° C. and pH = 7.2.
In assay [18] the target is T4L-L99A (UniProt P00720). Kind of assay: BSI steady-state, KD1 (high affinity mode), T = 37° C. and pH = 7.2.
The target in assay [19] is T4L-D70N (UniProt P00720). Kind of assay: BSI, global analysis, row printed kr1 but read as kr2 (low affinity mode), 25° C., pH 8.0.
Assay [20] addresses T4L-L99A-A130S (UniProt P00720). The description is as above.

Chain of αB-D3 (αB-crystallin with serine residues 19, 45 and 59 mutated to aspartic acids) (P02511 other isoform, or with tags, fused parts or gaps limits assumed, change not shown): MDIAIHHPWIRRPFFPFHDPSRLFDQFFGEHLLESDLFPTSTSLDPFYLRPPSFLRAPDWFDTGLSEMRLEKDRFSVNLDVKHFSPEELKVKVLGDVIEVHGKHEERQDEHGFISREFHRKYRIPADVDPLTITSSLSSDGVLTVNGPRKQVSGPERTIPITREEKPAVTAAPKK

As a reminder, the Kd is a measure of binding affinity in units of concentration. A higher Kd goes with weaker binding. What is called kon is the rate constant with which the complex forms. Higher therefore signals fast association. In general, koff refers to a measure of how fast the partners let go of each other. Low values mean slow dissociation, high ones fast dissociation. In turn, “αB-D3 (αB-crystallin with serine residues 19, 45 and 59 mutated to aspartic acids) (from UniProt P02511 1-175)” came in with a fold increase of affinity in the high affinity mode relative to D70N with T4L-L99A-A130S [1] of 4 fold. In the assay with T4L-D70N [2], this substance showed a reduction in the magnitude of the BSI signal relative to L99A/A130S of 40%. The Kd in the assay with T4L-L99A [3] is 2440 nM; in the assay with T4L-L99A [4], 15 nM; with T4L-D70N [5] it was 29100 nM; in the assay with T4L-L99A-A130S [6], 33000 nM; in the assay with T4L-L99A [9], 1000 nM; in the assay with T4L-D70N [10] it was 595 nM. Besides, the Kd with T4L-L99A-A130S [11] came out at 132 nM; with T4L-L99A [16], 20 nM; with T4L-L99A [17], 3110 nM; in the assay with T4L-L99A [18], 1 nM. Also, the kon was 2340 M⁻¹ s⁻¹ with T4L-D70N [7], 2970 M⁻¹ s⁻¹ with T4L-L99A-A130S [8], 25500 M⁻¹ s⁻¹ with T4L-D70N [12] and 58500 M⁻¹ s⁻¹ in the assay with T4L-L99A-A130S [13]. Besides, the off-rate (koff) with T4L-D70N [14] amounted to 0.0152 s⁻¹; with T4L-L99A-A130S [15] it was 5.03e-06 s⁻¹; in the assay with T4L-D70N [19], 0.0682 s⁻¹; with T4L-L99A-A130S [20], 0.115 s⁻¹.
